Consider five molecules from US20180105596A1 (ELSALYS BIOTECH, published 2018).

The target in experiment [1] is T1, cynomolgus Tyro3 ECD, His-Strep tagged.
T1 construct: also called cyno TYRO3 ECD 8hisstrep
T1 extracellular domain: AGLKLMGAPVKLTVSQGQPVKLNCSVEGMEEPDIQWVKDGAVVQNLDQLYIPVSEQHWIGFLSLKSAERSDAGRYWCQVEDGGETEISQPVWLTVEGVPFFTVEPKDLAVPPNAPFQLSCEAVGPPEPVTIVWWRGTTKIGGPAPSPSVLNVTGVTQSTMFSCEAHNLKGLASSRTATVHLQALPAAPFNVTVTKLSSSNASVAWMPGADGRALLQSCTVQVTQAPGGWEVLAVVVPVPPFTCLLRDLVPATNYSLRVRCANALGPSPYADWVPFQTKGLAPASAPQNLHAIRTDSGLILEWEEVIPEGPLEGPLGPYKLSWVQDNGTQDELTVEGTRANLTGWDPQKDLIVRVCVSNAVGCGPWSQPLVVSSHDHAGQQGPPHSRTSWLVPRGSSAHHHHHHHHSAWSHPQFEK
The experiment is described as follows: sandwich ELISA, Strep-tagged cynomolgus Tyro3 ECD captured on StrepMAB plate, IgG 3-fold from 3 µg/mL, anti-human IgG1-HRP. On the procedure:
[The procedure below names another species; the source lists this species under the same test.] (§1) A double sandwich ELISA was developed. This assay consisted in measuring the binding of the anti-Tyro3 antibodies to be tested on immobilized strep-tagged entire human Tyro3 ECD captured directly on ELISA plate pre-coated with an anti-strep mAb (StrepMAB-Immo coated microplates from IBA biotech). Briefly, the 96 wells of StrepMAB-Immo coated microplate were washed three times with 300 μL of the PBS Tween 0.2% (referred as ELISA washing solution). The capture of an excess of purified strep tagged hTyro3 ECD protein was achieved by a one hour incubation at room temperature. In these experiments, 3 μg of purified protein diluted in PBS, BSA 1% (referred as ELISA diluent solution) were immobilized per well. The wells were washed three times with 300 μL of the washing solution. The non-specific binding sites on the well surface were blocked during 60 min at room temperature with 200 μL/well of blocking solution (PBS, BSA 3%). The wells were washed five times with 300 μL of the washing solution. Then, 100 μl (in duplicates) of the different concentrations of anti-Tyro3 antibodies to be tested diluted in ELISA diluent solution, were added per well and allowed to incubate during 1 hour at room temperature. An Irrelevant control IgG2656 was also added in this experiment. For anti-Tyro3 antibodies in the ScFv format, experiments were performed with 6 concentrations in duplicates (FIG. 3A). For anti-Tyro3 antibodies in the IgG format, experiments were performed with 9 concentrations in duplicates (FIG. 3B). […] For IgGs experiments, starting concentration for first dilution was 3 μg/ml and then dilutions of 3 fold in the ELISA diluent solution were performed. The wells were washed five times with 300 μL of the washing solution. […] The mix was allowed to incubated 60 min at room temperature.

Experiment [2] has as its target T2, recombinant His-Strep tagged human Tyro3 extracellular domain (human, UniProt Q06418 41-429).
T2 construct: also called hTyro3 ECD; full Tyro3 ECD
T2 sequence: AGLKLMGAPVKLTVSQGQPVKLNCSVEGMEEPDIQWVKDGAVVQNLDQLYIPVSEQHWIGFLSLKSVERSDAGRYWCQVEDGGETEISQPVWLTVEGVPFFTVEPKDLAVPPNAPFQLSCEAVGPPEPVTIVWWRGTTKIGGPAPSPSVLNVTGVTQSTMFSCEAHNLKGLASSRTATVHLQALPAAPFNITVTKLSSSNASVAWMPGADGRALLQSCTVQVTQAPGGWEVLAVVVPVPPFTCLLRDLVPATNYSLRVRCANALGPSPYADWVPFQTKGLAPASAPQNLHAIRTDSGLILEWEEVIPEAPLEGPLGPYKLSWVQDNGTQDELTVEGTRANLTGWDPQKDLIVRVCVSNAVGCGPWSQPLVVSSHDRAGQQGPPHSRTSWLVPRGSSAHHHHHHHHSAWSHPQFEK
The experiment is described as follows: BLI (Octet K2), IgG on AHC tips, hTyro3 ECD analyte, 1:1 global fit; KD Error 5,96E-10. On the procedure:
(§2) Affinity determinations were performed using biolayer interferometry on an Octet K2 instrument (Pall/ForteBio) equipped with anti-Human Kinetics (AHC) disposable fiber-optic biosensor tips. All experiments were conducted at 30° C. in the recommended Fortebio running buffer (PBS with 0.1% (w/v) bovine serum albumin (BSA) and 0.02% (v/v) Tween_20). This buffer was also used for dilution of ligand (here the antibody) and of the analyte (here the extra cellular domain of human Tyro3 protein). Samples in a 96-well microplates (No. Black polypropylene low binding plates, Greiner Bio-One, Frickenhausen, Germany) were agitated at 1000 rpm. […] Between measurements, the anti-human Tyro3 biosensor surfaces were regenerated by exposing them to 3 cycles of 5 sec in 10 mM glycine, pH 1.5, followed by 5 sec in PBS. Association phase was measured for 300 seconds, dissociation phase depending on the interaction for 300 seconds depending on dissociation step. […] Affinity, association (kon) and dissociation rate constants (koff) for each antibody were calculated applying a 1:1 interaction model fitting global, Rmax linked by sensor) on the ForteBio data analysis software 9.0.

The target of experiment [3] is T2, recombinant His-Strep tagged human …. Kind of experiment: sandwich ELISA, Strep-tagged hTyro3 ECD captured on StrepMAB plate, IgG 3-fold from 3 µg/mL, anti-human IgG1-HRP. How it is done: as §1
The target is the same in experiment [4]. The experiment is described as follows: BLI (Octet K2), 1:1 global fit; analyte concentration of this kobs not given. On the procedure: Affinity determinations were performed using biolayer interferometry on an Octet K2 instrument (Pall/ForteBio) equipped with anti-Human Kinetics (AHC) disposable fiber-optic biosensor tips. All experiments were conducted at 30° C. in the recommended Fortebio running buffer (PBS with 0.1% (w/v) bovine serum albumin (BSA) and 0.02% (v/v) Tween_20). This buffer was also used for dilution of ligand (here the antibody) and of the analyte (here the extra cellular domain of human Tyro3 protein). Samples in a 96-well microplates (No. Black polypropylene low binding plates, Greiner Bio-One, Frickenhausen, Germany) were agitated at 1000 rpm. […] Between measurements, the anti-human Tyro3 biosensor surfaces were regenerated by exposing them to 3 cycles of 5 sec in 10 mM glycine, pH 1.5, followed by 5 sec in PBS. Association phase was measured for 300 seconds, dissociation phase depending on the interaction for 300 seconds depending on dissociation step. All measurements were corrected for baseline drift using the double reference substraction, that is to say by subtracting a control sensor without ligand exposed to each concentration of the extra cellular domain of human Tyro3 protein and a reference well with ligand submitted to running buffer only. Affinity, association (kon) and dissociation rate constants (koff) for each antibody were calculated applying a 1:1 interaction model fitting global, Rmax linked by sensor) on the ForteBio data analysis software 9.0.

The target is the same in experiment [5]. The experiment is described as follows: BLI (Octet K2), IgG on AHC tips, hTyro3 ECD analyte, 1:1 global fit; kon Error 1,34E+02. On the procedure:
as §2

The target is the same in experiment [6]. The experiment is described as follows: BLI (Octet K2), IgG on AHC tips, hTyro3 ECD analyte, 1:1 global fit; kdis(1/s); kdis Error 1,42E-05. On the procedure:
as §2

The target is the same in experiment [7]. The experiment is described as follows: BLI (Octet K2), IgG on AHC tips, hTyro3 ECD analyte, 1:1 global fit; kon Error 1,05E+03. On the procedure: as §2
Experiment [8] shares this target. The experiment is described as follows: BLI (Octet K2), IgG on AHC tips, hTyro3 ECD analyte, 1:1 global fit; KD Error 1,47E-09. On the procedure:
as §2

Experiment [9] shares this target. Kind of experiment: BLI (Octet K2), IgG on AHC tips, hTyro3 ECD analyte, 1:1 global fit; kdis(1/s); kdis Error 9,54E-05. How it is done:
as §2

Experiment [10] has the same target. The experiment is described as follows: BLI (Octet K2), IgG on AHC tips, hTyro3 ECD analyte, 1:1 global fit; kon Error 8,90E+02. How it is done:
as §2

The target is the same in experiment [11]. Kind of experiment: BLI (Octet K2), IgG on AHC tips, hTyro3 ECD analyte, 1:1 global fit; kdis(1/s); kdis Error 1,71E-04. How it is done: as §2
The target is the same in experiment [12]. The experiment is described as follows: BLI (Octet K2), IgG on AHC tips, hTyro3 ECD analyte, 1:1 global fit; KD Error 6,89E-09. On the procedure:
as §2

Experiment [13] shares this target. The experiment is described as follows: BLI (Octet K2), IgG on AHC tips, hTyro3 ECD analyte, 1:1 global fit; kdis(1/s); kdis Error 4,43E-05. How it is done: as §2
The target is the same in experiment [14]. Kind of experiment: BLI (Octet K2), IgG on AHC tips, hTyro3 ECD analyte, 1:1 global fit; KD Error 9,30E-10. On the procedure:
as §2

The target is the same in experiment [15]. Kind of experiment: BLI (Octet K2), IgG on AHC tips, hTyro3 ECD analyte, 1:1 global fit; kon Error 7,98E+02. On the procedure: as §2
For experiment [16] the target is unchanged. The experiment is described as follows: BLI (Octet K2), IgG on AHC tips, hTyro3 ECD analyte, 1:1 global fit; KD Error 4,92E-09. How it is done: as §2
Experiment [17] shares this target. Kind of experiment: BLI (Octet K2), IgG on AHC tips, hTyro3 ECD analyte, 1:1 global fit; kon Error 3,95E+02. On the procedure: as §2
The target is the same in experiment [18]. Kind of experiment: BLI (Octet K2), IgG on AHC tips, hTyro3 ECD analyte, 1:1 global fit; kdis(1/s); kdis Error 1,02E-04. How it is done:
as §2

B1: IgG2710 (antibody, V domains shown)
VH: EVQLVQSGADVKKPGASLTISCQASGYTFTDYWISWVRQKPGKGLEWMGVINKYASWTRYGPSFQGHVTISADRSTATAYLQWRSLEASDTAMYYCVRSGGLTSGGTIPEYYQHWGPGTLVTVSS
VL: SYELTQPPSVSVSPGQTARITCSGDALPKKYAYWYQQKSGQAPVLVIYEDSKRPSGIPERFSGSSSGTMATLTISGAQVEDEADYYCYSQNPQGNYFVFGGGTKLTVL
notes: also called IGX2710
For the molecule B1, the “EC50 (read off the curve)” value in experiment [1] was roughly 0.01 µg/mL; in [3], roughly 0.03 µg/mL. Also, the Kd in experiment [2] worked out at 73.5 nM. For the same molecule, the kobs in [4] stood at 0.00321 s⁻¹. For the same molecule, the kon in experiment [5] worked out at 29000 M⁻¹ s⁻¹. Besides, in [6], the dissociation rate constant (koff) was found to be 0.00213 s⁻¹.

B2: IgG2413 (antibody, V domains shown)
VH: EVQLVQSGADVKKPGASLTISCQASGYTFTDYWISWVRQKPGKGLEWMGRIHTYQSSTRYGPSFQGHVTISADRSTATAYLQWRSLEASDTAMYYCVRHHSTTTANPYSSWGPGTLVTVSS
VL: SYELTQPPSVSVSPGQTARITCSGDALPKKYAYWYQQKSGQAPVLVIYEDDKRLSGIPERFSGSSSGTMATLTISGAQVEDEADYYCYSTEINGNYAVFGGGTKLTVL
notes: also called IGX2413
For B2, the “EC50 (read off the curve)” value in experiment [1] and in experiment [3] was roughly 0.02 µg/mL throughout. For the same molecule, in [7], the kon turned out to be 97300 M⁻¹ s⁻¹. Further, in [8], the Kd is 101 nM. Further, the koff in experiment [9] came to 0.00987 s⁻¹. Further, in [4], the kobs was 0.0342 s⁻¹.

B3: IgG2414 (antibody, V domains shown)
VH: EVQLVQSGADVKKPGASLTISCQASGYTFTDYWISWVRQKPGKGLEWMGQINRHASNTMYGPSFQGHVTISADRSTATAYLQWRSLEASDTAMYYCVRSGGATSGGTIPEYYQHWGPGTLVTVSS
VL: SYELTQPPSVSVSPGQTARITCSGDALPKKYAYWYQQKSGQAPVLVIYEDWKRASGIPERFSGSSSGTMATLTISGAQVEDEADYYCYSQERKGNYFVFGGGTKLTVL
notes: also called IGX2414
Take B3: in experiment [10], the kon amounted to 46900 M⁻¹ s⁻¹. The koff in [11] came to 0.0144 s⁻¹. In experiment [1], the binding result is reported as “binds”. Moreover, the kobs in [4] came to 0.0203 s⁻¹. Also, the Kd in experiment [12] stood at 308 nM.

B4: IgG2415 (antibody, V domains shown)
VH: EVQLVQSGADVKKPGASLTISCQASGYTFTDYWISWVRQKPGKGLEWMGQIRGPASATHYGPSFQGHVTISADRSTATAYLQWRSLEASDTAMYYCVRHQQQTSGGTIPEYYQHWGPGTLVTVSS
VL: SYELTQPPSVSVSPGQTARITCSGDALPKKYAYWYQQKSGQAPVLVIYEDKKRISGIPERFSGSSSGTMATLTISGAQVEDEADYYCYSTSTGGNYMVFGGGTKLTVL
notes: also called IGX2415
Turning to B4, the koff in experiment [13] amounted to 0.00539 s⁻¹. In experiment [14], the Kd amounted to 70.2 nM. The binding result in experiment [1] is listed as “binds”. Moreover, the on-rate (kon) in [15] turned out to be 76800 M⁻¹ s⁻¹. Further, the “EC50 (read off the curve)” value in experiment [3] was roughly 0.02 µg/mL. For the same molecule, in experiment [4], the kobs was 0.0102 s⁻¹.

B5: IgG2711 (antibody, V domains shown)
VH: EVQLVQSGADVKKPGASLTISCQASGYTFTDYWISWVRQKPGKGLEWMGQIRGQHSSTLYGPSFQGHVTISADRSTATAYLQWRSLEASDTAMYYCVRHGASTSGGTIPEYYQHWGPGTLVTVSS
VL: SYELTQPPSVSVSPGQTARITCSGDALPKKYAYWYQQKSGQAPVLVIYEDAKRSSGIPERFSGSSSGTMATLTISGAQVEDEADYYCYSLSDSGNYFVFGGGTKLTVL
notes: also called IGX2711
For B5, the Kd in experiment [16] came out at 307 nM. Besides, the binding result in experiment [1] was “binds”. The “EC50 (read off the curve)” value in experiment [3] is roughly 0.01 µg/mL. Further, the kobs in experiment [4] is 0.014 s⁻¹. Moreover, the kon in experiment [17] worked out at 32300 M⁻¹ s⁻¹. Also, the koff in experiment [18] is 0.00992 s⁻¹.
